In US20030153020:

Molecular target: T1, LPXTG peptide DABCYL-QALPETGEE-EDANS
T1 chain: QALPETGEE

B1: SrtADN (SrtA in which the NH2-terminal membrane anchor segment is replaced with a six histidine tag) (protein)
chain: KPHIDNYLHDKDKDEKIEQYDKNVKEQASKDKKQQAKPQIPKDKSKVAGYIEIPDADIKEPVYPGPATPEQLNRGVSFAEENESLDDQNISIAGHTFIDRPNYQFTNLKAAKKGSMVYFKVGNETRKYKMTSIRDVKPTDVGVLDEQKGKDKQLTLITCDDYNEKTGVWEKRKIFVATEVK
LPXTG peptide cleavage activity of MTSET-inactivated SrtADN after 10 mM DTT: restored 80% of LPXTG peptide cleavage activity
cleavage of LPXTG peptide in the presence of 0.2 M NH2OH (fluorescence): Addition of 0.2 M NH2OH to this reaction resulted in an increase in fluorescence
cleavage of LPXTG peptide measured as an increase in fluorescence: SrtADN catalyzed cleavage of the substrate
hydroxylaminolysis of LPXTG peptide after pre-incubation with MTSET: pre-incubation with MTSET abolished all enzymatic activity
